Test results from patent US20180155451A1 (published 2018).

B1: GpH7-A5/GpH7-B3 variant P329_06M/GpL16-k0 (antibody, human IgG1, kappa)
heavy 1: not shown
heavy 2: not shown
light: DIVMTQSPLSLPVTPGEPASISCQASESLVHSNRNTYLHWYLQKPGQSPQLLIYKVSNRFSGVPDRFSGSGSGTDFTLKISRVEAEDVGVYYCSQNTHVPPTFGQGTKVEIERTVAAPSVFIFPPSDEQLKSGTASVVCLLNNFYPREAKVQWKVDNALQSGNSQESVTEQDSKDSTYSLSSTLTLSKADYEKHKVYACEVTHQGLSSPVTKSFNRGEC
notes: He Ab: heterodimerized anti-glypican-3 IgG1, substitution in one H chain only; also called He Ab P329M
B2: GpH7-A5/GpH7-B3 variant P329_16H/GpL16-k0 (antibody, human IgG1, kappa)
heavy 1: not shown
heavy 2: not shown
light: B1 light
notes: He Ab: heterodimerized anti-glypican-3 IgG1, substitution in one H chain only; also called He Ab P329H
B3: GpH7-A5/GpH7-B3 variant P329_12R/GpL16-k0 (antibody, human IgG1, kappa)
heavy 1: not shown
heavy 2: not shown
light: B1 light
notes: He Ab: substitution in one H chain only; also called He Ab P329R
B4: GpH7-A5/GpH7-B3 variant P329_08L/GpL16-k0 (antibody, human IgG1, kappa)
heavy 1: not shown
heavy 2: not shown
light: B1 light
notes: He Ab: heterodimerized anti-glypican-3 IgG1, substitution in one H chain only; also called He Ab P329L
B5: GpH7-A5/GpH7-B3 variant P329_07I/GpL16-k0 (antibody, human IgG1, kappa)
heavy 1: not shown
heavy 2: not shown
light: B1 light
notes: He Ab: heterodimerized anti-glypican-3 IgG1, substitution in one H chain only; also called He Ab P329I
B6: GpH7-A5/GpH7-B3 variant T335_11K/GpL16-k0 (antibody, human IgG1, kappa)
heavy 1: not shown
heavy 2: not shown
light: B1 light
notes: He Ab: heterodimerized anti-glypican-3 IgG1, substitution in one H chain only; also called He Ab T335K
B7: GpH7-A5/GpH7-B3 variant P329_11K/GpL16-k0 (antibody, human IgG1, kappa)
heavy 1: not shown
heavy 2: not shown
light: B1 light
notes: He Ab: substitution in one H chain only; also called He Ab P329K
B8: GpH7-A5/GpH7-B3 variant P331_01G/GpL16-k0 (antibody, human IgG1, kappa)
heavy 1: not shown
heavy 2: not shown
light: B1 light
notes: He Ab: heterodimerized anti-glypican-3 IgG1, substitution in one H chain only; also called He Ab P331G
B9: GpH7-A5/GpH7-B3 variant P329_18N/GpL16-k0 (antibody, human IgG1, kappa)
heavy 1: not shown
heavy 2: not shown
light: B1 light
notes: He Ab: heterodimerized anti-glypican-3 IgG1, substitution in one H chain only; also called He Ab P329N
B10: GpH7-A5/GpH7-B3 variant T335_12R/GpL16-k0 (antibody, human IgG1, kappa)
heavy 1: not shown
heavy 2: not shown
light: B1 light
notes: He Ab: heterodimerized anti-glypican-3 IgG1, substitution in one H chain only; also called He Ab T335R
B11: GpH7-A5/GpH7-B3 variant P329_09D/GpL16-k0 (antibody, human IgG1, kappa)
heavy 1: not shown
heavy 2: not shown
light: B1 light
notes: He Ab: substitution in one H chain only; also called He Ab P329D
B12: GpH7-A5/GpH7-B3 variant P329_13S/GpL16-k0 (antibody, human IgG1, kappa)
heavy 1: not shown
heavy 2: not shown
light: B1 light
notes: He Ab: heterodimerized anti-glypican-3 IgG1, substitution in one H chain only; also called He Ab P329S
B13: GpH7-A5/GpH7-B3 variant P329_10E/GpL16-k0 (antibody, human IgG1, kappa)
heavy 1: not shown
heavy 2: not shown
light: B1 light
notes: He Ab: substitution in one H chain only; also called He Ab P329E
B14: GpH7-A5/GpH7-B3 variant P329_14T/GpL16-k0 (antibody, human IgG1, kappa)
heavy 1: not shown
heavy 2: not shown
light: B1 light
notes: He Ab: heterodimerized anti-glypican-3 IgG1, substitution in one H chain only; also called He Ab P329T
B15: GpH7-A5/GpH7-B3 variant P329_15Y/GpL16-k0 (antibody, human IgG1, kappa)
heavy 1: not shown
heavy 2: not shown
light: B1 light
notes: He Ab: heterodimerized anti-glypican-3 IgG1, substitution in one H chain only; also called He Ab P329Y
B16: GpH7-A5/GpH7-B3 variant P329_19Q/GpL16-k0 (antibody, human IgG1, kappa)
heavy 1: not shown
heavy 2: not shown
light: B1 light
notes: He Ab: heterodimerized anti-glypican-3 IgG1, substitution in one H chain only; also called He Ab P329Q
B17: GpH7-A5/GpH7-B3 variant P329_20W/GpL16-k0 (antibody, human IgG1, kappa)
heavy 1: not shown
heavy 2: not shown
light: B1 light
notes: He Ab: heterodimerized anti-glypican-3 IgG1, substitution in one H chain only; also called He Ab P329W

These binders were tested against T1, FcγRIa extracellular domain with C-terminal His tag (human, UniProt P12314 16-292) (assay: SPR (Biacore); He/Con_1a divided by He/Con_2b (FcγRIIb)).
T1 construct: extracellular domain; Soluble receptor expressed in FreeStyle293 cells; analyte in Biacore; also called FcgRI; FcgRIa; not shown: His tag at the C terminus
T1 sequence (P12314 16-292): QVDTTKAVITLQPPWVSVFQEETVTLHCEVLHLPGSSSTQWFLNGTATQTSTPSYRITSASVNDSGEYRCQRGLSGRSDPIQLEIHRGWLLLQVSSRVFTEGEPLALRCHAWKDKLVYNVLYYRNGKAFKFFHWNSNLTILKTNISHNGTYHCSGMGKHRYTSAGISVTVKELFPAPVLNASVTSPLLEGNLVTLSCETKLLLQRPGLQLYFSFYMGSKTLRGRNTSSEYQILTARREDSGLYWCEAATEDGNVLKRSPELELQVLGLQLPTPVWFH
In short: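 Each FcγR was diluted in HBS-EP+ and injected at 25 °C over antibody held by an antigen-peptide sensor surface. Bound antibody was stripped with 10 mM glycine-HCl, pH 1.5, so chips could be reused.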

Binder | He_1a/2b (Ia/IIb)
B1 | 2.94
B2 | 2.45
B3 | 4.22
B4 | 2.95
B5 | 2.72
B6 | 1.22
B7 | 4.17
B8 | 1.88
B9 | 2.29
B10 | 1.23
B11 | 1.45
B12 | 2.27
B13 | 1.5
B14 | 2.37
B15 | 2.09
B16 | 2.31
B17 | 2.15

The binders below were run against T2, FcγRIIb extracellular domain with C-terminal His tag (human, UniProt P31994 43-217) (assay: SPR (Biacore), antibody captured on antigen peptide chip, FcγR as analyte; binding relative to GpH7-A5/GpH7-B3/GpL16-k0 = 100).
T2 construct: extracellular domain; Soluble receptor expressed in FreeStyle293 cells; analyte in Biacore; also called FcgRIIb; 2b; not shown: His tag at the C terminus
T2 sequence (looked up): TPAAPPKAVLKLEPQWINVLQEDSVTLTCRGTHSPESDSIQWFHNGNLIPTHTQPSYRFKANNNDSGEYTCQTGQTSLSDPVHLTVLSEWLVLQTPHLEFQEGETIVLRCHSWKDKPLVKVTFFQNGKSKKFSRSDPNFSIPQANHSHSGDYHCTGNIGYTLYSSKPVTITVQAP

Binder | He/Con_2b (IIb binding)
B1 | 29.1 % of control (control = 100)
B2 | 39.1 % of control (control = 100)
B3 | 17.6 % of control (control = 100)
B4 | 29.1 % of control (control = 100)
B5 | 34.6 % of control (control = 100)
B6 | 91 % of control (control = 100)
B7 | 16.9 % of control (control = 100)
B8 | 45.4 % of control (control = 100)
B9 | 40.4 % of control (control = 100)
B10 | 91.9 % of control (control = 100)
B11 | 53.5 % of control (control = 100)
B12 | 41 % of control (control = 100)
B13 | 52.7 % of control (control = 100)
B14 | 37.9 % of control (control = 100)
B15 | 45.7 % of control (control = 100)
B16 | 30.7 % of control (control = 100)
B17 | 45.1 % of control (control = 100)

Each binder was assayed against T1, FcγRIa extracellular domain with … in the same assay as above.

Binder | He/Con_1a (Ia binding)
B1 | 85.3 % of control (control = 100)
B2 | 95.6 % of control (control = 100)
B3 | 74.3 % of control (control = 100)
B4 | 85.7 % of control (control = 100)
B5 | 94.1 % of control (control = 100)
B6 | 111 % of control (control = 100)
B7 | 70.4 % of control (control = 100)
B8 | 85.3 % of control (control = 100)
B9 | 92.4 % of control (control = 100)
B10 | 113 % of control (control = 100)
B11 | 77.6 % of control (control = 100)
B12 | 93.3 % of control (control = 100)
B13 | 78.8 % of control (control = 100)
B14 | 89.7 % of control (control = 100)
B15 | 95.6 % of control (control = 100)
B16 | 70.7 % of control (control = 100)
B17 | 96.9 % of control (control = 100)
